Reference: US20070197446A1, “MHC binding peptides and their uses” (ProImmune Limited, priority 2006, published 2007)
Where two headings read alike, the source gives them in different places.

Tests used:
HLA-B*3501 [1] = biological target: HLA-B*3501
HLA-B*3501 [2] = experiment: MHC-peptide assembly over 24 h, ELISA with conformational antibody; reading minus pass/fail control

Row | Binder | ELISA (Absorption-Pass/Fail Control) (HLA-A*0201) [absorption] | ELISA (Absorption-Pass/Fail Control) (HLA-B*0801) [absorption] | other results
1 | MEKNVTVTH (modifications not checked) [… (SEQ ID NO: 20)] | -0.02 |  | 
2 | LFAIVSLVK (modifications not checked) [… (SEQ ID NO: 40)] |  |  | ELISA (Absorption-Pass/Fail Control) (HLA-B*3501 [1]): 0.1 absorption
3 | DILEKKHNG (modifications not checked) [… (SEQ ID NO: 34)] |  | 0.53 | 
4 | NVPEWSYIV (modifications not checked) [… (SEQ ID NO: 25)] | 1.03 |  | 
5 | HPVGEADYFEY (modifications not checked) [… (SEQ ID NO: 8)] |  |  | ELISA (Absorption-Pass/Fail Control) (HLA-B*3501 [2]): 0.55 absorption
6 | LILRDCSVA (modifications not checked) [… (SEQ ID NO: 23)] | 0.57 | 0.07 | 
7 | GNPMCDEFI (modifications not checked) [… (SEQ ID NO: 39)] |  | 0.04 | 
8 | IMEKNVTVT (modifications not checked) [… (SEQ ID NO: 19)] | 0.02 |  | 
9 | PLILRDCSV (modifications not checked) [… (SEQ ID NO: 36)] |  | 0.65 | 
10 | LVKSDQICI (modifications not checked) [… (SEQ ID NO: 29)] |  |  | ELISA (Absorption-Pass/Fail Control) (HLA-B*0702): -0.06 absorption; ELISA (Absorption-Pass/Fail Control) (HLA-B*3501 [1]): 0.04 absorption
11 | PMCDEFINV (modifications not checked) [… (SEQ ID NO: 24)] | 0.98 |  | 
12 | VLLFAIVSL (modifications not checked) [… (SEQ ID NO: 11)] | 0.47 |  | 
13 | KPLILRDCS (modifications not checked) [… (SEQ ID NO: 35)] |  | 0.1 | 
14 | HANNSTEQV (modifications not checked) [… (SEQ ID NO: 17)] | 0.43 |  | ELISA (Absorption-Pass/Fail Control) (HLA-B*3501 [1]): 0.43 absorption
15 | VSLVKSDQI (modifications not checked) [… (SEQ ID NO: 31)] |  | 0.36 | 
16 | KLCDLDGVK (modifications not checked) [… (SEQ ID NO: 22)] | 0.2 |  | ELISA (Absorption-Pass/Fail Control) (HLA-A*0301): 1.16 absorption
17 | LLFAIVSLV (modifications not checked) [… (SEQ ID NO: 12)] | 1.06 |  | 

Row | Binder | ELISA (Absorption-Pass/Fail Control) (HLA-A*0201) [absorption] | ELISA (Absorption-Pass/Fail Control) (HLA-B*0801) [absorption] | other results
18 | IVSLVKSDQ (modifications not checked) [… (SEQ ID NO: 15)] | 0.04 |  | 
19 | FAIVSLVKS (modifications not checked) [… (SEQ ID NO: 13)] | 0.07 |  | 
20 | KSDQICIGY (modifications not checked) [… (SEQ ID NO: 9)] |  |  | ELISA (Absorption-Pass/Fail Control) (HLA-A*0101): 0.47 absorption; ELISA (Absorption-Pass/Fail Control) (HLA-A*0301): 0.05 absorption
21 | DTIMEKNVT (modifications not checked) [… (SEQ ID NO: 32)] |  | 0.08 | 
22 | NVTVTHAQD (modifications not checked) [… (SEQ ID NO: 27)] |  | 0.08 | ELISA (Absorption-Pass/Fail Control) (HLA-A*0301): -0.04 absorption
23 | AQDILEKKH (modifications not checked) [… (SEQ ID NO: 21)] | 0.15 |  | 
24 | ILEKKHNGK (modifications not checked) [… (SEQ ID NO: 28)] |  | 0.95 | ELISA (Absorption-Pass/Fail Control) (HLA-A*0301): -0.01 absorption
25 | SLVKSDQIC (modifications not checked) [… (SEQ ID NO: 16)] | 0.09 |  | ELISA (Absorption-Pass/Fail Control) (HLA-B*3501 [1]): -0.03 absorption
26 | AGWLLGNPM (modifications not checked) [… (SEQ ID NO: 42)] |  |  | ELISA (Absorption-Pass/Fail Control) (HLA-B*3501 [1]): -0.06 absorption
27 | TIMEKNVTV (modifications not checked) [… (SEQ ID NO: 18)] | 0.99 | 0.8 | ELISA (Absorption-Pass/Fail Control) (HLA-B*0702): 0 absorption
28 | AIVSLVKSD (modifications not checked) [… (SEQ ID NO: 14)] | 0.43 |  | 
29 | FINVPEWSY (modifications not checked) [… (SEQ ID NO: 10)] |  |  | ELISA (Absorption-Pass/Fail Control) (HLA-A*0101): 0.16 absorption; ELISA (Absorption-Pass/Fail Control) (HLA-B*3501 [1]): 0.57 absorption
30 | VTHAQDILE (modifications not checked) [… (SEQ ID NO: 33)] |  | 0.31 | 
31 | ILRDCSVAG (modifications not checked) [… (SEQ ID NO: 30)] |  |  | ELISA (Absorption-Pass/Fail Control) (HLA-B*0702): 0.03 absorption
32 | VAGWLLGNP (modifications not checked) [… (SEQ ID NO: 37)] |  | 0.04 | 
33 | LGNPMCDEF (modifications not checked) [… (SEQ ID NO: 43)] |  |  | ELISA (Absorption-Pass/Fail Control) (HLA-B*3501 [1]): 0.35 absorption
34 | WLLGNPMCD (modifications not checked) [… (SEQ ID NO: 38)] |  | 0.03 | 
